{"source": "patent US20050074855A1", "about": "(Regeneron, published 2005)", "target": "T1, human IL-6 (human, UniProt P05231 30-212)", "T1 construct": "Soluble analyte injected at 1.25, 2.5 and 5 nM in the BIAcore assay; also called hIL-6", "T1 sequence (P05231 30-212 limits assumed)": "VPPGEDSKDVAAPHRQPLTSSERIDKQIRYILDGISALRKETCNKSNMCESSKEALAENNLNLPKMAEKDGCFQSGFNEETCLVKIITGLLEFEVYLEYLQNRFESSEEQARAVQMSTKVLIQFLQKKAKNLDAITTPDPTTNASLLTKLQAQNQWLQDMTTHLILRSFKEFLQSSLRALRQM", "assay": "SPR (BIAcore 2000), fusion captured by anti-human Fc, hIL-6 injected", "procedure": "Affinity Measurements. The affinity of the various scFv-scFv-Fc fusion proteins for human IL-6 was measured using a BIAcore 2000. […] Kinetic analysis using BIAevaluation software was performed to obtain the association and dissociation rate constants.", "data": [{"binder": "8F10.8F10 ScFv-ScFv-Fc (Fc fusion, Monospecific tandem scFv-Fc; not shown: Fc domain of human IgG1) QVQLQQSGAELAKPGASVKMSCKASGYTFTTYWMHWIKQRPGQGLEWIGYINPSTGYSEFNQKFNDKATLTADRSSSTAYMQLNSLTSEDSAVYYCARDAYYGNYEDYWGQGTTLTVSSAGGGGSGGGGSGGGGSSIVMTQTPKFLLVSAGDRVTITCKASQSVSYDVAWYQQKPGQSPKLLIYYESNRYSGVPDRFTGSGNGTDFTFTISTVQAEDLAVYFCQQVYTSPYTFGGGTKLEIKRGGGGSGGGGSGGGGSQVQLQQSGAELAKPGASVKMSCKASGYTFTTYWMHWIKQRPGQGLEWIGYINPSTGYSEFNQKFNDKATLTADRSSSTAYMQLNSLTSEDSAVYYCARDAYYGNYEDYWGQGTTLTVSSAGGGGSGGGGSGGGGSSIVMTQTPKFLLVSAGDRVTITCKASQSVSYDVAWYQQKPGQSPKLLIYYESNRYSGVPDRFTGSGNGTDFTFTISTVQAEDLAVYFCQQVYTSPYTFGGGTKLEIKR", "values": [{"measurement": "Kd", "value": 0.296, "unit": "nM"}]}, {"binder": "8F10 ScFv-Fc (Fc fusion, how it was built is not described; not shown: Fc domain of human IgG1) QVQLQQSGAELAKPGASVKMSCKASGYTFTTYWMHWIKQRPGQGLEWIGYINPSTGYSEFNQKFNDKATLTADRSSSTAYMQLNSLTSEDSAVYYCARDAYYGNYEDYWGQGTTLTVSSAGGGGSGGGGSGGGGSSIVMTQTPKFLLVSAGDRVTITCKASQSVSYDVAWYQQKPGQSPKLLIYYESNRYSGVPDRFTGSGNGTDFTFTISTVQAEDLAVYFCQQVYTSPYTFGGGTKLEIKR", "values": [{"measurement": "Kd", "value": 0.43, "unit": "nM"}]}]}
